Values of other authors as cited in paper PMC2917178.

Molecular target: Lys66 (UniProt position 148, FTKKMKENAKK)
Conditions: native (folded) state

For “Staphylococcal nuclease V66K variant (Staphylococcus aureus; V66K)”, the pKa is listed as 6.4.
